In general, IC50 refers to the midpoint of a concentration-inhibition curve.

Data on 2 molecules can be found in patent US20100035363A1 (TIBOTEC PHARMACEUTICALS, published 2010).

For one experiment, the target named is T1, biotin-labeled RSV-IQN57 (Respiratory Syncytial Virus (F1 part), biotin label (position not stated in the example); captured on streptavidin-allophycocyanin in the assay).
T1 construct: Synthetic peptide; In the assay it was pre-mixed with streptavidin-APC (final 100 nM IQN57-biotin, 10 nM streptavidin-APC); also called IQN57-biotin; IQN57-APC
T1 peptide: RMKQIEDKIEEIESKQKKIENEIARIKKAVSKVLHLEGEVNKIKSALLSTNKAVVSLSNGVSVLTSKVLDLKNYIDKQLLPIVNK
The experiment in a line: time-resolved FRET competition, IQN57-APC/C45-Eu assay; competitor C45-Eu.

The target of the next experiment is T2, biotin-labeled RSV-IQN51 (Respiratory Syncytial Virus (F1 part), biotin label (position not stated in the example); captured on streptavidin-allophycocyanin in the assay).
T2 construct: Synthetic peptide; In the assay it was pre-mixed with streptavidin-APC (final 100 nM IQN51-biotin, 10 nM streptavidin-APC); also called IQN51-biotin; IQN51-APC
Briefly: time-resolved FRET competition, IQN51-APC/C39-Eu assay; competitor C39-Eu.

Method for biotin-labeled RSV-IQN51: (§1) Test compounds were serially diluted in PBS and then added to 384-well plates.
In an alternative set-up, equal volumes of the IQN51-biotin and strepatavidin-APC solution were mixed and incubated for 30 min at room temperature in tubes. Next, these mixes were transferred from the tubes to plates containing test compounds (ratio 2:1) and incubated for 2 h at room temperature. […] After incubating the plates for 30 min at room temperature, the fluorescence resonance energy transfer (FRET) signal was detected using a Viewlux reader and used to calculate the IC₅₀ of the test compound. A final DMSO percentage of 0.5% was applied. This assay is named the IQN51-APC/C39-Eu assay.
Method for biotin-labeled RSV-IQN57: as §1
Equal volumes of the IQN57-biotin and strepatavidin-APC solution were mixed and incubated for 30 min at room temperature in tubes. Next, these mixes were transferred from the tubes to plates containing test compounds (ratio 2:1) and incubated for 2 h at room temperature. […] After incubating the plates for 30 min at room temperature, the fluorescence resonance energy transfer (FRET) signal was detected using a Viewlux reader and used to calculate the 50% inhibitory concentration (IC₅₀) of the test compound. IC₅₀ is the drug concentration at which 50% of the FRET signal (or 6HB complex formation) is inhibited. A final DMSO percentage of 0.5% was applied. This assay is named the IQN57-APC/C45-Eu assay.

B1: RSV-C45 (peptide)
peptide: NFYDPLVFPSDEFDASISQVNEKINQSLAFIRKSDELLHNVNAGK
B1: the half-inhibitory concentration (IC50) with biotin-labeled RSV-IQN57 was determined as 0.074 µM; with biotin-labeled RSV-IQN51, 0.076 µM.

B2: RSV-C39 (peptide)
peptide: VFPSDEFDASISQVNEKINQSLAFIRKSDELLHNVNAGK
Regarding B2, the values for the IC50 with biotin-labeled RSV-IQN57 and in the experiment with biotin-labeled RSV-IQN51 were 0.064 µM and 0.076 µM, respectively.
